# Source: US20060008891A1, “Cathepsin G-related peptides as modulators of formylpeptide receptors (FPR)” (The Government of USA as repersented by the Secretary, …, priority 2004, published 2006)
# Values joined by “and” are separate entries in the source; they are usually repeats but may differ in a detail not shown here. Equal entries are not always repeated.
# How the values were obtained:
# [1] = molecular target: T1, FPR (Homo sapiens, UniProt P21462); assay: Chemotaxis of HEK293 cells transfected with FPR; format: cell-based; details: chemotaxis index
# T1 construct: expressed in transfected cells; host or cells: Rat basophilic leukemia (RBL) cells, stably transfected (ETFR cells); gift of H. Ali and R. Snyderman, Duke University
# T1 sequence (P21462 1-350): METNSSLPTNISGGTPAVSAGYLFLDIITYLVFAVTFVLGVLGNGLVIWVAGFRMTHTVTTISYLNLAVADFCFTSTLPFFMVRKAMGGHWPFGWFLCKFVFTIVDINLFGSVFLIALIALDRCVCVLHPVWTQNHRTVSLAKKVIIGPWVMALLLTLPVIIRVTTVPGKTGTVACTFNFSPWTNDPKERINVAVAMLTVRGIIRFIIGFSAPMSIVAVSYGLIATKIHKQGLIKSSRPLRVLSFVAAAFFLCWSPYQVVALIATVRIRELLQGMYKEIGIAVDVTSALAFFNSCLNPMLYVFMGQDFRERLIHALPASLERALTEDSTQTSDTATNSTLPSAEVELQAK
# Method: Human PBMC were isolated from leukopacks obtained through the courtesy of Transfusion Medicine Department, National Institutes of Health Clinical Center (Bethesda, Md.) by Ficoll-Hypaque density gradient centrifugation. Monocytes were purified from human PBMC by Percoll gradient to yield>90% pure preparations. […] H. Ali and R. Snyderman, Duke University (Durham, N.C.) and maintained in the presence of 0.8 mg/ml geneticin (G418, Life Technologies, Rockville, Md.) in DMEM supplemented with 10% FCS. B. Chemotaxis assay Migration of phagocytes and ETFR cells was assessed using a 48-well microchemotaxis chamber (Neuroprobe, Cabin John, Md.) as previously described (Hu et al. (2001) J Leukoc Biol 70 15512). […] After incubation at 37° C. in humidified air with 5% CO2 (60 min for neutrophils, 90 min for monocytes, 4.5 h for ETFR cells), the filter was removed and stained, and the cells migrating across the filter were counted with light microscopy. […]
# The chimeric receptor was stably transfected into HEK293 cells (a human embryo kidney cell line) and the chemotactic activity of CaG on the transfected cells was measured and compared to the chemotactic activity of CaG on […] cells transfected with wild type FPR, using the assay for chemotaxis described in Example IB. […]
# [2] = tested on: parental RBL cells; assay: Chemotaxis assay, parental RBL cells; format: cell-based, rat; details: parental RBL cells without FPR
# Method: Human PBMC were isolated from leukopacks obtained through the courtesy of Transfusion Medicine Department, National Institutes of Health Clinical Center (Bethesda, Md.) by Ficoll-Hypaque density gradient centrifugation. Monocytes were purified from human PBMC by Percoll gradient to yield>90% pure preparations. […] H. Ali and R. Snyderman, Duke University (Durham, N.C.) and maintained in the presence of 0.8 mg/ml geneticin (G418, Life Technologies, Rockville, Md.) in DMEM supplemented with 10% FCS. B. Chemotaxis assay Migration of phagocytes and ETFR cells was assessed using a 48-well microchemotaxis chamber (Neuroprobe, Cabin John, Md.) as previously described (Hu et al. (2001) J Leukoc Biol 70 15512). Briefly, different concentrations of stimulants were placed in the wells of the lower compartment of the chamber, and 50 μl cells (1.5×10^6 cells/ml for monocyte and neutrophil, 1×10^6 ETFR cells/ml) were added to the wells of the upper compartment. The lower and upper compartments were separated by either a 5-μm (for monocyte) or a 10-μm pore size, collagen-coated (for ETFR cells) polycarbonate filter (Osmonics, Livermore, Calif.). After incubation at 37° C. in humidified air with 5% CO2 (60 min for neutrophils, 90 min for monocytes, 4.5 h for ETFR cells), the filter was removed and stained, and the cells migrating across the filter were counted with light microscopy. […]
# [3] = molecular target: T1, FPR; assay: FPR cell surface expression (FACS), ETFR cells and monocytes; format: cell-based; details: 5 μg/ml CaG or 1 μM fMLF, 37° C. 30 min
# Method: Cell surface expression of FPR was monitored by a flow cytometer (FACS). Monocytes and ETFR cells (1×10^6 cells/sample) were pretreated with medium or stimulants at 37° C. for 30 minutes. After two washes with cold FACS buffer (DPBS, 1% FCS, 0.02% sodium azide, and 5 mM EDTA, pH7.4), the cells were blocked with 5% normal rat serum followed by incubation with a monoclonal anti-human FPR antibody or isotype matched IgG on ice for 30 min. After three washes with FACS buffer, FITC-labeled rat anti-mouse antibody (PharMingen) was applied and incubated on ice for 30 min. The cells were then washed twice with FACS buffer and analyzed immediately by flow cytometry (Becton Dickinson, San Jose, Calif.).
# [4] = tested on: PKC isozymes; assay: PKC translocation in parental RBL cells; format: cell-based, rat; details: 100 nM fMLF, 10 μg/ml CaG or PMA 500 nM, 37° C. 10 min
# [5] = tested on: PKCδ; assay: PKCδ translocation in ETFR cells; format: cell-based, rat; details: 100 nM fMLF, 10 μg/ml CaG or PMA 500 nM, 37° C. 10 min
# Method: ETFR cells were seeded on coverslips and cultured overnight in DMEM containing 1% FCS at 37° C. After further culture in FCS-free DMEM for 3 h, cells were treated with stimulants for indicated time periods at 37° C. and were then fixed in 4% paraformaldehyde for 5 min at room temperature. […] The rabbit anti-PKCα/β, δ, and ξ, antibodies (1:1000 in DPBS) were applied separately for 1 h at room temperature. After three rinses with DPBS, the cells were stained with FITC-labeled goat anti-rabbit secondary antibody (PharMingen, 1:1000 in DPBS) for 1 h at room temperature. The coverslips were mounted with an anti-fade, water-based mounting medium with Propidium Iodide (PI) (Vector Lab, Burlingamem, Calif.) and analyzed under a laser scanning confocal fluorescence microscope (Zeiss LSM510 NLO Meta, Jena, Germany).
# [6] = molecular target: T1, FPR; assay: Chemotaxis assay, RBL cells transfected with FPR (ETFR cells); format: cell-based
# Method: (§1) Human PBMC were isolated from leukopacks obtained through the courtesy of Transfusion Medicine Department, National Institutes of Health Clinical Center (Bethesda, Md.) by Ficoll-Hypaque density gradient centrifugation. Monocytes were purified from human PBMC by Percoll gradient to yield>90% pure preparations. […] H. Ali and R. Snyderman, Duke University (Durham, N.C.) and maintained in the presence of 0.8 mg/ml geneticin (G418, Life Technologies, Rockville, Md.) in DMEM supplemented with 10% FCS. B. Chemotaxis assay Migration of phagocytes and ETFR cells was assessed using a 48-well microchemotaxis chamber (Neuroprobe, Cabin John, Md.) as previously described (Hu et al. (2001) J Leukoc Biol 70 15512). Briefly, different concentrations of stimulants were placed in the wells of the lower compartment of the chamber, and 50 μl cells (1.5×10^6 cells/ml for monocyte and neutrophil, 1×10^6 ETFR cells/ml) were added to the wells of the upper compartment. The lower and upper compartments were separated by either a 5-μm (for monocyte) or a 10-μm pore size, collagen-coated (for ETFR cells) polycarbonate filter (Osmonics, Livermore, Calif.). After incubation at 37° C. in humidified air with 5% CO2 (60 min for neutrophils, 90 min for monocytes, 4.5 h for ETFR cells), the filter was removed and stained, and the cells migrating across the filter were counted with light microscopy. The results are presented as the mean number of cells (±SD) in three high power fields (HPFs). For analysis of cross-desensitization, cells were pretreated with indicated reagents for 1 h at 37° C. After thorough washing with cold medium (RPMI 1640, 1% BSA), the cells were resuspended and assayed. To measure the effect of various signaling inhibitors, unless otherwise indicated, the cells were pre-incubated at 37° C. for 60 min with the inhibitors, and were then added to the upper wells of the chemotaxis chamber.
# [7] = tested on: neutrophils; assay: Chemotaxis assay, neutrophils; format: cell-based, human; details: neutrophils
# Method: as §1
# [8] = molecular target: T1, FPR; assay: 125I-CaG binding to ETFR cells; details: LIGAND program
# Method: CaG was iodinated with a chrolamine-T method (Lofstrand Labs, Gaithersburg, Md.) with a specific activity of […] protein. Duplicate samples of ETFR cells or the parental RBL cells (2×10^6 cells in 200 μl RPMI 1640 containing 1% bovine serum albumin, 25 mM Hepes, and 0.05% NaN3) were incubated with 25 nM ^125I-CaG, in the presence of increasing concentrations of unlabeled ligands. After incubation and rotation at room temperature for 1 h, the cells were pelleted through a 10% sucrose/PBS cushion for 1 min at 10,000 g. The supernatant was removed and the radioactivity associated with cell pellets was measured in a γ counter (CliniGamma, Pharmacia Biotech Inc.). The binding data were analyzed with a Macintosh computer-aided program LIGAND (Dr. P. Munson, Division of Computer Research and Technology, NIH, Bethesda, Md.).
substance,measurement,setting,value
"CaG: Cathepsin G, serine protease purified from neutrophil granules, purchased from Athens Research & Technology",chemotactic activity on FPR-transfected HEK293 cells,[1],chemotacic for FPR-transfected HEK 293 cells
same,migration of parental RBL cells,[2],Neither CaG nor fMLF induced migration of parental RBL cells
same,down-regulation of FPR from the cell surface,[3],"weaker, but significant ability of CaG to down-regulate FPR"
same,PKC translocation in parental RBL cells,[4],Neither CaG nor fMLF stimulated PKC translocation in parental RBL cells
same,translocation of PKCδ,[5],did not induce translocation of PKCδ
same,chemotactic response of ETFR cells,[6]; ETFR cells,marked and dose-dependent chemotactic response
same,concentration range potently chemotactic,[6]; ETFR cells,4 to 400 nM
same,optimal concentration to induce ETFR cell migration,[6]; ETFR cells,5 µg/mL
same,concentration required to elicit optimal cell migration,"[6]; FPR-expressing cells, cell type not specified",5-10 μg/ml and 200-400 nM
same,concentration range potently chemotactic,[7],4 to 400 nM
same,Kd of 125I-CaG binding,[8],approximately 2 μg/ml
